Experiments:
LIMA1 = target: T1, LIMA1 (UniProt Q9UHB6-4 1-760, limits assumed); assay: co-IP, anti-FLAG, N-FLAG B3GNT2 cell lysate, mass spectrometry
T1 construct: also called NP_001107018.1 (+1)
Description: (§1) Cells were plated in 10-cm cell culture dishes and grown to 60-80% confluency. For each condition, two biological replicates were harvested for co-IP. Cells were washed with PBS and 4 mL of lysis buffer (20 mM HEPES, 1% Triton X-100, 150 mM NaCl, 1 mM EDTA, and 10% glycerol) containing protease inhibitor cocktail was added. Cells were scraped and lysate was incubated at 4° C. under rotary agitation for 1 h. Lysate was centrifuged at 14,000×g for 10 min at 4° C. Supernatant was transferred to a new tube and an aliquot was taken as the input. […] For Western blots, 10 μg/mL Chicken Anti-FLAG (Aves labs ET-DY100) and IgY control (R&D Systems AB-101-C) antibodies were biotinylated (Thermo Fisher Scientific 90407) and added to the respective conditions. Lysates with antibodies were incubated at 4° C. under rotary agitation overnight. For each mL of lysate, 50 μL of Pierce Protein A/G Magnetic Beads (Mass spectrometry; Thermo Fisher Scientific 88803) or Pierce Streptavidin Magnetic Beads (Western blot; Thermo Fisher Scientific 88817) was washed twice with lysis buffer. Lysates with antibodies were added to the beads and incubated at 4° C. under rotary agitation for 4 h. Beads were washed with lysis buffer 3 times and resuspended in lysis buffer for storage.
(§2) Magnetic beads were resuspended in 100 mM Tris pH 7.8, reduced, alkylated and digested with trypsin at 37° ° C. overnight. This solution was subjected to solid phase extraction to concentrate the peptides and remove unwanted reagents followed by injection onto a Shimadzu HPLC with fraction collector. Eight fractions were collected and after concentration were injected on a Waters NanoAcquity HPLC equipped with a self-packed Aeris 3 μm C18 analytical column 0.075 mm by 20 cm, (Phenomenex). Peptides were eluted using standard reverse-phase gradients. The effluent from the column was analyzed using a Thermo Orbitrap Elite mass spectrometer (nanospray configuration) operated in a data dependent manner for 54 minutes. The resulting fragmentation spectra were correlated against the known database using Proteome Discover 1.4 (Thermo Fisher Scientific).

SSRP1 = target: T2, SSRP1 (UniProt Q08945 2-709); assay: as above
T2 construct: also called NP_003137.1 (+3)
T2 sequence (Q08945 2-709 limits assumed): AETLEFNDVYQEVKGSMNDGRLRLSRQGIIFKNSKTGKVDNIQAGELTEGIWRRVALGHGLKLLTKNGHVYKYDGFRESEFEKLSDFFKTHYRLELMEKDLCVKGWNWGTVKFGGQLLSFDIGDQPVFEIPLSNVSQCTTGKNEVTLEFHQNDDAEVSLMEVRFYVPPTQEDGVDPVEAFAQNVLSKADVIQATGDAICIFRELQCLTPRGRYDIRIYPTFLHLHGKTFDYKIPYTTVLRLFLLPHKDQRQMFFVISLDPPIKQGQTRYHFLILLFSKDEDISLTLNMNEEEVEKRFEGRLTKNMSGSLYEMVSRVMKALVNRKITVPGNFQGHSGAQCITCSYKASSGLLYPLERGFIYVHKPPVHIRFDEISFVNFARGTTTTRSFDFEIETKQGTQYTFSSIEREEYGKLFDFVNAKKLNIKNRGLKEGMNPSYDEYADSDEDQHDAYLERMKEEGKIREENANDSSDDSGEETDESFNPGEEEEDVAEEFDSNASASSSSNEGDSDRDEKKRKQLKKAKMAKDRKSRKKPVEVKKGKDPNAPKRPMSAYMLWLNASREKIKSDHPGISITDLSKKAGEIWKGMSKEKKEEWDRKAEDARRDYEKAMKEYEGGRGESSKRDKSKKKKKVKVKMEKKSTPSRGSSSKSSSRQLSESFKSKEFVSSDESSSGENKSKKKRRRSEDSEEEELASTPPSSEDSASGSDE
Description: as §1, §2

HSPB1 = target: T3, HSPB1 (UniProt P04792 1-205); assay: as above
T3 construct: also called NP_001531.1
T3 sequence (P04792 whole entry): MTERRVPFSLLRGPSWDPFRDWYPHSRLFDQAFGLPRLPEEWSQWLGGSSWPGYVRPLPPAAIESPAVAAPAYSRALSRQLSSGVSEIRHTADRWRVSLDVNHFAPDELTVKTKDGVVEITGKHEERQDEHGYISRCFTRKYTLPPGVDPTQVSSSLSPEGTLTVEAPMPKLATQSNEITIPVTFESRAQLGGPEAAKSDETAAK
Description: as §1, §2

RPS8 = RPS8 (UniProt P62241 2-208); assay: as above
Description: as §1, §2

RPS13 = RPS13 (UniProt P62277 2-151); assay: as above
Description: as §1, §2

EIF4G1 = target: T4, EIF4G1 (UniProt Q04637-3 1-1559, limits assumed); assay: as above
T4 construct: also called NP_001278086.1
T4 sequence (Q04637 41-1599 limits assumed): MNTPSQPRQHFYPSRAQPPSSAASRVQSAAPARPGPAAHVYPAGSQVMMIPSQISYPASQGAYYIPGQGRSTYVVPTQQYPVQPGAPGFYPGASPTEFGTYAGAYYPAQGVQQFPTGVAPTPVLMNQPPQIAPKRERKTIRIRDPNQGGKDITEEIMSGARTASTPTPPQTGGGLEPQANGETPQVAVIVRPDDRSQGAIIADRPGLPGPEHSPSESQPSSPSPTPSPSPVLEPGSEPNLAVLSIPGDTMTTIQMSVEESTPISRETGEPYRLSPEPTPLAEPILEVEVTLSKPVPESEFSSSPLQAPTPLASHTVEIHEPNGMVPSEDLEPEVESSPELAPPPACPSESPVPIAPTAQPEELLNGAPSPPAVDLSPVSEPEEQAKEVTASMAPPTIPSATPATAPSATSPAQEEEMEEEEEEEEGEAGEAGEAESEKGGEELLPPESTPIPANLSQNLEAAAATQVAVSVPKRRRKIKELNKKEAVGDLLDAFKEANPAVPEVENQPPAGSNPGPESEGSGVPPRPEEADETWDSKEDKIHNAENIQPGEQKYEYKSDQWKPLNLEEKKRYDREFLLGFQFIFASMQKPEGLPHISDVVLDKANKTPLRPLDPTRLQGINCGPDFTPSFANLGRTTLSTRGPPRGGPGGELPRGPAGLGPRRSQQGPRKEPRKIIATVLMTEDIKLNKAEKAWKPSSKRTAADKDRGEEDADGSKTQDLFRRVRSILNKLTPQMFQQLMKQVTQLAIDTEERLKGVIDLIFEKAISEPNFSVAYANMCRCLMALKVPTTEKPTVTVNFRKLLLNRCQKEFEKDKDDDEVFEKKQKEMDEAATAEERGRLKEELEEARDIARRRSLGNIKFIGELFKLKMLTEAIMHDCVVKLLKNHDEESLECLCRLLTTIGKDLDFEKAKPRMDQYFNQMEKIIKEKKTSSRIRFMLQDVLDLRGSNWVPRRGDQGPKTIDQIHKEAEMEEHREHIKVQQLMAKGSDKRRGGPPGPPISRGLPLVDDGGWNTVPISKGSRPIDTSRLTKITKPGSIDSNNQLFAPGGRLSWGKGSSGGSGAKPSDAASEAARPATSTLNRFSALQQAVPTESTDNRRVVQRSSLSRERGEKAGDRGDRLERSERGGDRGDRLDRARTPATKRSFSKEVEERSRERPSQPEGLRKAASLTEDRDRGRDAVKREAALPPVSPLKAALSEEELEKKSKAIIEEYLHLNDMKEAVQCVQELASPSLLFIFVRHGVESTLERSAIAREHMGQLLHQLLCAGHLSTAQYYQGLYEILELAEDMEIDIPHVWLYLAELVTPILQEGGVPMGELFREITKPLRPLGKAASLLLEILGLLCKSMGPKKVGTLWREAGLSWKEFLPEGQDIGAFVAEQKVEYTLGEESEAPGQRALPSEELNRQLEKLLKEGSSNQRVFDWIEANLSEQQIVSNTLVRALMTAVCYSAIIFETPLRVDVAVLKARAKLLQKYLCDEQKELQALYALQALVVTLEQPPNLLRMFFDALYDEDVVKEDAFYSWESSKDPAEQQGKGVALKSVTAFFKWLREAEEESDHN
Description: as §1, §2

RPS19 = RPS19 (UniProt P39019 2-145); assay: as above
Description: as §1, §2

KTN1 = target: T5, KTN1 (human, UniProt Q86UP2 1-1357); assay: anti-FLAG co-IP from lysate of N-FLAG B3GNT2 cells, mass spectrometry
T5 construct: also called NP_001072989.1 (+5)
T5 sequence (looked up): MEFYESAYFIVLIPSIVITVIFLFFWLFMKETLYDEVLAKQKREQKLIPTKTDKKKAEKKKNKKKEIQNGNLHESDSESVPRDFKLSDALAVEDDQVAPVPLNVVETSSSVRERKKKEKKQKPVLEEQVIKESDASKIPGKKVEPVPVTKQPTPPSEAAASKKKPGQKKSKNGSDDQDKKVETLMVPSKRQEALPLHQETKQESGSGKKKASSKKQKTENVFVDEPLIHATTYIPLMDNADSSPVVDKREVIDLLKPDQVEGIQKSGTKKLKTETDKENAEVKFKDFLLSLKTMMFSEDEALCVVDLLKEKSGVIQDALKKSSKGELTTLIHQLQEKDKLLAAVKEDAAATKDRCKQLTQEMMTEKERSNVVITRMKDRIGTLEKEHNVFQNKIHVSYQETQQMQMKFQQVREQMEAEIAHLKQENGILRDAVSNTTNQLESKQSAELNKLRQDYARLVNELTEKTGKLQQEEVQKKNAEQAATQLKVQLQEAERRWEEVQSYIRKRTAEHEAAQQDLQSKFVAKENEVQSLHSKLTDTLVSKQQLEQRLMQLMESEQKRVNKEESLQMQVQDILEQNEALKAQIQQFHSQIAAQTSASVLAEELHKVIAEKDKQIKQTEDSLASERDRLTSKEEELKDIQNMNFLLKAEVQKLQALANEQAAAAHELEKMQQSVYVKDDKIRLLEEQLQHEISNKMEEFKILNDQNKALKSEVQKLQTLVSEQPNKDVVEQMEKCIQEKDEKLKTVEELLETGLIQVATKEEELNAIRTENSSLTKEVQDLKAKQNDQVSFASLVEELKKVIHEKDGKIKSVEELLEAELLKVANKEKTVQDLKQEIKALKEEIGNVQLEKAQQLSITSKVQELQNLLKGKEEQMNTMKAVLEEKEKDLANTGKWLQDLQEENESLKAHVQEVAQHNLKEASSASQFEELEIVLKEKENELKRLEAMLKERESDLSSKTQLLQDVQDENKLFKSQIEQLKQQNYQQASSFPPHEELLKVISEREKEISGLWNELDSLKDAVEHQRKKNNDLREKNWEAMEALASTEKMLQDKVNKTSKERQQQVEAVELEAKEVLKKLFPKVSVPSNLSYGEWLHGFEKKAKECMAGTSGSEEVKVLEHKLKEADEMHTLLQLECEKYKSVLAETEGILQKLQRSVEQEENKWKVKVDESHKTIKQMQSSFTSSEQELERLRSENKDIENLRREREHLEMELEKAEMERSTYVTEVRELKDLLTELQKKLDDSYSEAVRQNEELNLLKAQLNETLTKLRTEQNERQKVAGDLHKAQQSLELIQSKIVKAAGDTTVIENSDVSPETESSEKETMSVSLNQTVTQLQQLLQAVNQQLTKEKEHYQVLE

T1 sequence (Q9UHB6 other isoform, or with tags, fused parts or gaps limits assumed): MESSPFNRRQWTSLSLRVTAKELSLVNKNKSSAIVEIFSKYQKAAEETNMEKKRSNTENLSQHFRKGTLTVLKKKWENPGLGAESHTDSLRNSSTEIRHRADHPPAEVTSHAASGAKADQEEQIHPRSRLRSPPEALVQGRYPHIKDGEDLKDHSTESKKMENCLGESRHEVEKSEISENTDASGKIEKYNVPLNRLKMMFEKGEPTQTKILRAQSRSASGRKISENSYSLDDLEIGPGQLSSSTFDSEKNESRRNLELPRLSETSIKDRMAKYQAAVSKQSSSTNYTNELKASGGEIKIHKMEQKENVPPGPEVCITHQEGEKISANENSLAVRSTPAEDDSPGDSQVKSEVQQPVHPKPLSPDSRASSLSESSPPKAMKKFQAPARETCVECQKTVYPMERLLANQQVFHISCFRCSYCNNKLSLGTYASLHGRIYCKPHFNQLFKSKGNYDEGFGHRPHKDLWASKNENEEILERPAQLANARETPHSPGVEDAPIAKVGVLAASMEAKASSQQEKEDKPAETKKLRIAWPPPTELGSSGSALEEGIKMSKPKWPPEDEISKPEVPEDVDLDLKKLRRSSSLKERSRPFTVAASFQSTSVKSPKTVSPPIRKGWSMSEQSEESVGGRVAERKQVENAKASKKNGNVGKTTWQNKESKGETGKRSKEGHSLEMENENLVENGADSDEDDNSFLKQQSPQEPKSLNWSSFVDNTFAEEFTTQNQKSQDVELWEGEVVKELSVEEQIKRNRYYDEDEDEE

B1: N-terminal FLAG tagged B3GNT2 (enzyme, human, UniProt Q9NY97 1-397, looked up)
chain: MSVGRRRIKLLGILMMANVFIYFIMEVSKSSSQEKNGKGEVIIPKEKFWKISTPPEAYWNREQEKLNRQYNPILSMLTNQTGEAGRLSNISHLNYCEPDLRVTSVVTGFNNLPDRFKDFLLYLRCRNYSLLIDQPDKCAKKPFLLLAIKSLTPHFARRQAIRESWGQESNAGNQTVVRVFLLGQTPPEDNHPDLSDMLKFESEKHQDILMWNYRDTFFNLSLKEVLFLRWVSTSCPDTEFVFKGDDDVFVNTHHILNYLNSLSKTKAKDLFIGDVIHNAGPHRDKKLKYYIPEVVYSGLYPPYAGGGGFLYSGHLALRLYHITDQVHLYPIDDVYTGMCLQKLGLVPEKHKGFRTFDIEEKNKNNICSYVDLMLVHSRKPQEMIDIWSQLQSAHLKC
notes: Bait of the co-IP; pulled down with mouse anti-FLAG from cell lysate; also called N-FLAG B3GNT2; N-term FLAG; not shown: FLAG tag at the N-terminus
co-IP mass spectrometry count (LIMA1): 4
co-IP mass spectrometry count (SSRP1): 0
co-IP mass spectrometry count (HSPB1): 3
co-IP mass spectrometry count (RPS8): 6
co-IP mass spectrometry count (RPS13): 3
co-IP mass spectrometry count (EIF4G1): 2
co-IP mass spectrometry count (RPS19): 5

B2: N-terminal FLAG tagged B3GNT2 (enzyme, human, UniProt Q9NY97 1-397, looked up)
chain: MSVGRRRIKLLGILMMANVFIYFIMEVSKSSSQEKNGKGEVIIPKEKFWKISTPPEAYWNREQEKLNRQYNPILSMLTNQTGEAGRLSNISHLNYCEPDLRVTSVVTGFNNLPDRFKDFLLYLRCRNYSLLIDQPDKCAKKPFLLLAIKSLTPHFARRQAIRESWGQESNAGNQTVVRVFLLGQTPPEDNHPDLSDMLKFESEKHQDILMWNYRDTFFNLSLKEVLFLRWVSTSCPDTEFVFKGDDDVFVNTHHILNYLNSLSKTKAKDLFIGDVIHNAGPHRDKKLKYYIPEVVYSGLYPPYAGGGGFLYSGHLALRLYHITDQVHLYPIDDVYTGMCLQKLGLVPEKHKGFRTFDIEEKNKNNICSYVDLMLVHSRKPQEMIDIWSQLQSAHLKC
notes: Bait of the co-IP; pulled down from cell lysate with mouse anti-FLAG antibody; also called N-FLAG B3GNT2; N-term FLAG; not shown: N-terminal FLAG tag
co-IP mass spectrometry count (KTN1): 0

Source: patent US20240261333A1 (published 2024)
